Target: sgk3_human SGK3 (UniProt Q96BR1)
Sequence (Q96BR1 whole entry): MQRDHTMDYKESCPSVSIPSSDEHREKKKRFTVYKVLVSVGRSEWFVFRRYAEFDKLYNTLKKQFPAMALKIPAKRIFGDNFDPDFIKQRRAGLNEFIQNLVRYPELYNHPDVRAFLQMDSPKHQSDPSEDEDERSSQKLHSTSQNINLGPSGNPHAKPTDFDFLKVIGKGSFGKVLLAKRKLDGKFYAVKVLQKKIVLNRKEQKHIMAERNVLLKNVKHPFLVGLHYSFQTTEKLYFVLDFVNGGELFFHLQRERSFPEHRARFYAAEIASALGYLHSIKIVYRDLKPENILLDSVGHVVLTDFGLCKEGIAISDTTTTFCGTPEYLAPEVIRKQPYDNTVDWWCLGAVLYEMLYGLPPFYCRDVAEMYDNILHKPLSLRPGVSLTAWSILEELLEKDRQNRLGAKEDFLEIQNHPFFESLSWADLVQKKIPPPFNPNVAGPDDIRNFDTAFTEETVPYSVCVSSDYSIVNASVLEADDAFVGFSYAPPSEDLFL

effect of a mutation on the interaction | Substance
decreasing interaction strength | E3 ubiquitin-protein ligase Itchy homolog (Homo sapiens), Q96J02 T385A
disrupting interaction strength | E3 ubiquitin-protein ligase Itchy homolog (Homo sapiens), Q96J02 S450A
